B1: CDC25B (parent)
chain: FVDILESDLKDDDAVPPGMESLIS
B2: PKD2L1 (parent)
chain: YSGGGYYLDLPGSRQGSAEALRAL

Variants of: B1
Experiment: protein stability index of a GFP-peptide fusion (GPS, HEK-293T) (PSI 1-6); higher = more stable
Conditions: c terminus: a fixed tail appended
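Also: lentivirally expressed fusions sorted by FACS into six bins by GFP to DsRed ratio, PSI derived from sequencing read proportions per bin multiplied by bin number.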

Row | Variant | protein stability index
1 | S21L | 3.43
2 | S21Y | 2.35
3 | S21E | 3.05
4 | S21D | 3.15
5 | S21A | 2.84
6 | S21F | 2.5
7 | S21H | 2.67
8 | S21C | 2.93
9 | S21Q | 2.83
10 | S21R | 2.86
11 | S21M | 2.96
12 | S21N | 2.81
13 | S21W | 2.22
14 | S21P | 3.02
15 | S21T | 2.76
16 | S21I | 3.24
17 | S21K | 2.68
18 | S21G | 2.61
19 | S21V | 2.93
20 | E20C | 2.43
21 | E20T | 2.51
22 | E20N | 2.76
23 | E20K | 2.74
24 | E20L | 2.2
25 | E20R | 2.71

Row | Variant | protein stability index
26 | E20I | 2.31
27 | E20F | 1.79
28 | E20V | 2.66
29 | E20S | 2.43
30 | E20W | 1.78
31 | E20P | 2.44
32 | E20Q | 3.08
33 | E20D | 2.6
34 | E20Y | 2.12
35 | E20A | 2.77
36 | E20H | 2.69
37 | E20G | 2.48
38 | E20M | 2.16
39 | G18H | 3.11
40 | G18N | 3.23
41 | G18Q | 2.86
42 | G18S | 3.06
43 | G18R | 2.87
44 | G18L | 3.51
45 | G18P | 3.18
46 | G18A | 3.03
47 | G18M | 2.6
48 | G18D | 3.29
49 | G18W | 2.31
50 | G18K | 2.8

Row | Variant | protein stability index
51 | G18Y | 2.65
52 | G18V | 2.87
53 | G18T | 3.28
54 | G18I | 2.32
55 | G18E | 3.39
56 | G18F | 2.26
57 | G18C | 2.6
58 | S24Y | 2.47
59 | S24Q | 3.9
60 | S24P | 2.57
61 | S24D | 3.45
62 | S24M | 2.52
63 | S24L | 2.18
64 | S24A | 3.1
65 | S24H | 2.94
66 | S24I | 2.69
67 | S24E | 3.27
68 | S24T | 3.02
69 | S24N | 2.85
70 | S24V | 2.41
71 | S24R | 2.96
72 | S24K | 2.82
73 | S24W | 1.72
74 | S24C | 2.66
75 | S24F | 2.01

Row | Variant | protein stability index
76 | S24G | 3.02
77 | D13K | 2.96
78 | D13Y | 2.11
79 | D13L | 2.61
80 | D13C | 2.56
81 | D13F | 2.38
82 | D13M | 2.33
83 | D13P | 2.83
84 | D13E | 2.95
85 | D13S | 2.63
86 | D13T | 2.75
87 | D13W | 2.62
88 | D13V | 2.39
89 | D13I | 2.08
90 | D13N | 2.67
91 | D13Q | 2.71
92 | D13R | 2.1
93 | D13G | 2.61
94 | D13H | 2.7
95 | D13A | 3.04
96 | V15D | 3.11
97 | V15N | 3.27
98 | V15F | 2.39
99 | V15C | 2.88
100 | V15L | 2.78

Row | Variant | protein stability index
101 | V15G | 3.19
102 | V15S | 3.32
103 | V15Y | 3.1
104 | V15A | 2.78
105 | V15T | 2.92
106 | V15Q | 2.87
107 | V15M | 3.02
108 | V15H | 3.04
109 | V15W | 2.69
110 | V15I | 3
111 | V15K | 2.96
112 | V15E | 3.11
113 | V15R | 2.69
114 | A14E | 3.05
115 | A14G | 2.53
116 | A14S | 3.24
117 | A14I | 2.65
118 | A14H | 2.75
119 | A14N | 3.29
120 | A14V | 3.15
121 | A14W | 2.65
122 | A14K | 2.96
123 | A14R | 2.75
124 | A14F | 2.49
125 | A14D | 3.48

Row | Variant | protein stability index
126 | A14M | 3
127 | A14Y | 2.49
128 | A14L | 2.8
129 | A14C | 2.86
130 | A14T | 3.61
131 | A14Q | 2.33
132 | A14P | 3.15
133 | I23M | 3.02
134 | I23F | 2.48
135 | I23S | 3.3
136 | I23Q | 3.77
137 | I23D | 3.7
138 | I23N | 2.6
139 | I23K | 2.83
140 | I23L | 3.07
141 | I23P | 2.96
142 | I23C | 2.93
143 | I23H | 3.56
144 | I23V | 2.65
145 | I23R | 2.77
146 | I23W | 2.25
147 | I23A | 3.54
148 | I23Y | 2.69
149 | I23T | 2.91
150 | I23E | 3.57

Row | Variant | protein stability index
151 | I23G | 3.03
152 | L22D | 3.67
153 | L22F | 2.63
154 | L22K | 2.99
155 | L22N | 2.71
156 | L22Q | 3.32
157 | L22S | 3.66
158 | L22E | 3.92
159 | L22R | 2.66
160 | L22G | 3.21
161 | L22M | 3.1
162 | L22V | 3.19
163 | L22Y | 2.47
164 | L22P | 3.36
165 | L22W | 2.43
166 | L22A | 3.37
167 | L22I | 2.77
168 | L22H | 3.52
169 | L22T | 3.65
170 | L22C | 3.15
171 | L9R | 3.08
172 | L9S | 3.36
173 | L9I | 3.05
174 | L9T | 3.23
175 | L9Q | 3.18

Row | Variant | protein stability index
176 | L9P | 3.62
177 | L9F | 2.85
178 | L9W | 2.97
179 | L9M | 3.03
180 | L9H | 3.33
181 | L9K | 3.4
182 | L9Y | 3.18
183 | L9V | 2.93
184 | L9N | 3.67
185 | L9G | 3.05
186 | D12V | 2.56
187 | D12N | 2.67
188 | D12P | 2.66
189 | D12F | 2.19
190 | D12K | 2.78
191 | D12T | 2.65
192 | D12E | 2.93
193 | D12Q | 2.62
194 | D12Y | 2.69
195 | D12S | 2.96
196 | D12I | 2.21
197 | D12L | 2.9
198 | D12W | 1.83
199 | D12R | 2.16
200 | D12H | 2.88

Row | Variant | protein stability index
201 | D12G | 3.01
202 | D12M | 2.08
203 | D12C | 2.5
204 | D12A | 2.84
205 | D11G | 2.78
206 | D11Q | 2.51
207 | D11A | 3
208 | D11Y | 2.71
209 | D11H | 2.37
210 | D11S | 2.94
211 | D11N | 2.5
212 | D11I | 2.6
213 | D11K | 3.02
214 | D11V | 2.61
215 | D11T | 3.28
216 | D11R | 2.25
217 | D11L | 2.25
218 | D11C | 2.25
219 | D11M | 2.6
220 | D11W | 1.8
221 | D11E | 3.17
222 | D11F | 2.52
223 | D11P | 2.68
224 | K10E | 3.33
225 | K10M | 3.2

Row | Variant | protein stability index
226 | K10N | 2.87
227 | K10A | 2.77
228 | K10Y | 2.59
229 | K10P | 3.1
230 | K10T | 3.46
231 | K10F | 2.63
232 | K10S | 2.52
233 | K10D | 2.91
234 | K10L | 2.45
235 | K10C | 3.11
236 | K10Q | 2.97
237 | K10I | 2.72
238 | K10H | 2.97
239 | K10V | 3
240 | K10W | 2.43
241 | K10G | 3.5
242 | K10R | 2.75
243 | P16T | 2.98
244 | P16I | 2.44
245 | P16V | 3.07
246 | P16L | 2.76
247 | P16D | 3.62
248 | P16W | 2.52
249 | P16Q | 2.79
250 | P16M | 2.6

Row | Variant | protein stability index
251 | P16H | 3.14
252 | P16Y | 2.82
253 | P16E | 3.04
254 | P16K | 3
255 | P16R | 2.59
256 | P16S | 2.88
257 | P16A | 2.98
258 | P16N | 3.23
259 | P16F | 2.06
260 | P16G | 3.02
261 | P16C | 2.68
262 | M19P | 3.54
263 | M19E | 3.37
264 | M19T | 3.09
265 | M19V | 3.08
266 | M19H | 2.89
267 | M19L | 3.08
268 | M19S | 3.45
269 | M19D | 3.48
270 | M19R | 2.55
271 | M19I | 2.85
272 | M19W | 2.67
273 | M19A | 3.22
274 | M19G | 3.06
275 | M19F | 2.83

Row | Variant | protein stability index
276 | M19N | 3.4
277 | M19Q | 3.6
278 | M19K | 3.02
279 | M19C | 2.91
280 | M19Y | 2.32
281 | P17F | 2.21
282 | P17V | 2.27
283 | P17G | 3.25
284 | P17T | 3.51
285 | P17H | 2.61
286 | P17K | 2.45
287 | P17E | 3.6
288 | P17A | 2.95
289 | P17S | 2.72
290 | P17M | 2.69
291 | P17D | 3.2
292 | P17L | 2.43
293 | P17Y | 2.71
294 | P17Q | 3.2
295 | P17I | 2.45
296 | P17C | 2.58
297 | P17N | 2.66
298 | P17W | 1.81
299 | P17R | 2.19

Variants of: B2
Experiment: as above
Conditions: c terminus: a fixed tail appended

Row | Variant | protein stability index
300 | Y6I | 1.79
301 | Y6T | 2.75
302 | G12C | 1.24
303 | G12H | 1.96
304 | G12M | 2.54
305 | G12N | 2.36
306 | G5D | 2.28
307 | G5Y | 1.71
308 | G5M | 2.68
309 | G5E | 2.06
310 | A23H | 2.09
311 | A23P | 2.19
312 | Y7H | 2.26
313 | Y7N | 2.59
314 | S13D | 1.12
315 | S13Y | 1.96
316 | S13T | 1.82
317 | A18P | 1.79

Row | Variant | protein stability index
318 | A18E | 1.71
319 | Q15K | 2.5
320 | Q15N | 1.94
321 | R22P | 1.78
322 | A20F | 2.64
323 | A20Q | 1.66
324 | P11S | 1.73
325 | L21F | 2.09
326 | E19P | 2.03
327 | R14Y | 2
328 | R14S | 1.57
329 | S2L | 1.4
330 | G4P | 2.03
331 | G4A | 1.56
332 | S17R | 1.41
333 | L8M | 3.21
334 | Y1L | 3.1

Reference: the supplement of paper PMC10567573
